For series [1], the target named is T1, Fpg (formamidopyrimidine-DNA glycosylase) (Escherichia coli, UniProt P05523 2-269).
T1 sequence: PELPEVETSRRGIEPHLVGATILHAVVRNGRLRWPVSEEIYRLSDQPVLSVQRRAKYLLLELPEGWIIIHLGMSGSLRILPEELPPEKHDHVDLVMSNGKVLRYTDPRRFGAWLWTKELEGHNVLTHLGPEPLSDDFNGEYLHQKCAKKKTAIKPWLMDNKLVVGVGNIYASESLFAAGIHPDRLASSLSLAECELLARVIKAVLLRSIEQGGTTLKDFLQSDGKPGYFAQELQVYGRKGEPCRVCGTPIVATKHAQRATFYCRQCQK
The experiment in a line: MST; MST: 50 mM Tris-HCl pH 7.5, 50 mM KCl, 1 mM EDTA, 1 mM DTT, 7% glycerol, 25 C, 10 min, 0.5 uM DNA; authors call Kd values estimates only. Conditions: protein: recombinant, tags: none (native form without tags).

Series [2] has as its target NEIL1 (endonuclease VIII-like 1) (Homo sapiens, UniProt Q96FI4 2-390). The series is described as above. Conditions: protein: recombinant.
The next series deals with T2, NTH1 (endonuclease III) (Homo sapiens, UniProt P78549 1-304).
T2 sequence: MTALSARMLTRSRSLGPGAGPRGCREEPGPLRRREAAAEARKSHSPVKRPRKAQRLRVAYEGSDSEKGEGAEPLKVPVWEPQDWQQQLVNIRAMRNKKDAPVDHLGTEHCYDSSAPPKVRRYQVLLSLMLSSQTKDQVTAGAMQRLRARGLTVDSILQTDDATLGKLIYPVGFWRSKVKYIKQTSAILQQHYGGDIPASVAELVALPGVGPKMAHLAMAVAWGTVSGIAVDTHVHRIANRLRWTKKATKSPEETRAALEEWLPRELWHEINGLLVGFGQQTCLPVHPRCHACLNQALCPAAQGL
Described as above. Conditions: protein: recombinant.

The target of series [3] is T3, OGG1 (8-oxoguanine-DNA glycosylase) (Homo sapiens, UniProt O15527 1-345). Described as above. Conditions: protein: recombinant.
T3 sequence (O15527 whole entry): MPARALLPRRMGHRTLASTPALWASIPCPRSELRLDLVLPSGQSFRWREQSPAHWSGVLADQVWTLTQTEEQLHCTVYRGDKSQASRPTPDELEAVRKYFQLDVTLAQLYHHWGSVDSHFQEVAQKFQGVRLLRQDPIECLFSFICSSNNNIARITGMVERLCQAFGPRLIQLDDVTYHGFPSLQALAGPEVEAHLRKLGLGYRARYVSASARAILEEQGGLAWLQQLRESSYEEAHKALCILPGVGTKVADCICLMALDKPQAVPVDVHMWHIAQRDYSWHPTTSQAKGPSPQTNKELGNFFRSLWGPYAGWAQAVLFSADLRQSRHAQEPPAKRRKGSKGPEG
The next series addresses T4, Nei (endonuclease VIII) (Escherichia coli, UniProt P50465 2-263).
T4 sequence: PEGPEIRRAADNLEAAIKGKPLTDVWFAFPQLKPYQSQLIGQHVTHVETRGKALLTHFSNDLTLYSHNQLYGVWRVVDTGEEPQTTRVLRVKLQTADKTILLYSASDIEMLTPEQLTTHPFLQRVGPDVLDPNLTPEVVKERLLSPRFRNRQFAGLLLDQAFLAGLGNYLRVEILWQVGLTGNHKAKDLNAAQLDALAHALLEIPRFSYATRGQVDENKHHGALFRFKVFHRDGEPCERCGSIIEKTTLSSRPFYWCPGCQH
The series is described as above. Conditions: protein: recombinant, tags: none (native form without tags).

For series [4], the target named is T1, Fpg (formamidopyrimidine-DNA …). In words: stopped-flow FRET; DNA bending phase before cleavage; MST: 50 mM Tris-HCl pH 7.5, 50 mM KCl, 1 mM EDTA, 1 mM DTT, 7% glycerol, 25 C, 10 min, 0.5 uM DNA; authors call Kd values estimates only. Conditions: protein: recombinant; tags: none (native form without tags); label: 5'-FAM on strand 1; blunt.
Series [5] concerns the target T3, OGG1 (8-oxoguanine-DNA glycosylase). The description is as above. Conditions: protein: recombinant; label: 5'-FAM on strand 1; blunt.
Setting [6] is: label: 5'-FAM on strand 2, blunt.
Setting [7] is: label: 5'-FAM, 3'-BHQ1, G-quadruplex.

Sequence of NEIL1 (endonuclease VIII-like 1) (Q96FI4 2-390): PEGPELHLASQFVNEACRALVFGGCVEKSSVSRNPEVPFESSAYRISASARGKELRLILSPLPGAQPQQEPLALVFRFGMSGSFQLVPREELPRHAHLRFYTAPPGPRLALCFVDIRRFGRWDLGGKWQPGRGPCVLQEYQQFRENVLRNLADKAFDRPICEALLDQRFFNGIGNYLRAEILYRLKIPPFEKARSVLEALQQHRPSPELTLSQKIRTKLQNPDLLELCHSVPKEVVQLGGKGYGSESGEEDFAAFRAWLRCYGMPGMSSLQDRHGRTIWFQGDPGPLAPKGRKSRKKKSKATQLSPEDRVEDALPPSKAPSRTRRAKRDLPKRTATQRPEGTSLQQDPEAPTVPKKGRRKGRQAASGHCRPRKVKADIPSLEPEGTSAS

Consider TTAGGGTTAGGGTTAGGGTTAGGGTT (structured_DNA) [Q4], for which the Kd is 1000 ± 300 nM in series [1] (G-quadruplex); 3400 ± 500 nM in series [2] (G-quadruplex); 2500 ± 800 nM with NTH1 (endonuclease III) (G-quadruplex); 700 ± 200 nM in series [3] (G-quadruplex); 900 ± 200 nM in the series with Nei (endonuclease VIII) (G-quadruplex).

B1: C/G (dsDNA)
DNA 1: GCTCACGTACAGAGCTG
DNA 2: CAGCTCTGTACGTGAGC
Consider B1, for which the dissociation constant Kd in series [1] (setting [6]) was 1600 ± 1100 nM; in series [2] (setting [6]) it was 17000 ± 15000 nM; in the series with NTH1 (endonuclease III) (setting [6]) it was 700 ± 400 nM; in series [3] (setting [6]) it was 1400 ± 500 nM; with Nei (endonuclease VIII) (setting [6]), 3100 ± 700 nM.

B2: Type I oxoG/C (dsDNA)
DNA 1: GCTCAGGTACAGAGCTG
DNA 2: CAGCTCTGTACCTGAGC
modifications: G6 of strand 1 = 8-oxoguanine, opposite C
B2: the binding result in series [4] and in series [5] was “binds” in each case.

Regarding TTAGGGTTAGGGTTAGGGTTAGGGTT (structured_DNA, G17 = 8-oxoguanine) [Q4-oxoG], the figures for the Kd in series [1] (setting [7]) and in series [3] (setting [7]) were 1200 ± 400 nM and 1200 ± 300 nM, respectively.

In the case of TTAGGGTTAGGGTTAGGGTTAGGGTT (structured_DNA, T14 = thymine glycol) [Q4-Tg], the Kd in series [2] (setting [7]) is 9100 ± 3000 nM; with NTH1 (endonuclease III) (setting [7]), 1300 ± 300 nM; with Nei (endonuclease VIII) (setting [7]), 800 ± 200 nM.

One may read the Kd as the free concentration of one partner at which half of the binding sites on the other are occupied at equilibrium, for simple one-to-one binding.

Values taken from PMC7734321, “Lesion Recognition and Cleavage of Damage-Containing Quadruplexes and Bulged Structures by DNA Glycosylases”.
